This note sets out measurements from paper PMC5703890, “Involvement of cecropin B in the formation of the Aedes aegypti mosquito cuticle”.

T1: Aacec B (cecropin B) peptide (Aedes aegypti)
T1 chain: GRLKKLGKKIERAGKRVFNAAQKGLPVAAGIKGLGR

T2: Aacec B (cecropin B) peptide (Aedes aegypti)
T2 sequence: T1 chain

B1: nucleotide replacement 4 ((A/C)A to CG) (dsDNA)
DNA 1: TCGAAATGTTGGCGTCCCGG
DNA 2: CCGGGACGCCAACATTTCGA
B2: nucleotide replacement 1 (TT to CC) (dsDNA)
DNA 1: TCGAAATGCCGGAATCCCGG
DNA 2: CCGGGATTCCGGCATTTCGA
B3: nucleotide replacement 3 ((A/C)A to TA) (dsDNA)
DNA 1: TCGAAATGTTGGTATCCCGG
DNA 2: CCGGGATACCAACATTTCGA
B4: nucleotide replacement 2 (GG to TA) (dsDNA)
DNA 1: TCGAAATGTTTAAATCCCGG
DNA 2: CCGGGATTTAAACATTTCGA
B5: AaPPO 3-Cu B3 oligo (TTGGCA) (dsDNA)
DNA 1: GTTCTATCGTTGGCACGGAATGATC
DNA 2: GATCATTCCGTGCCAACGATAGAAC
B6: AaPPO 3-Cu B2 oligo (TTGGAA) (dsDNA)
DNA 1: GAGTATCGGTACTTGGAAGATTTTG
DNA 2: CAAAATCTTCCAAGTACCGATACTC
B7: AaPPO 3-5' end-1-2 oligo (TTGGAA) (dsDNA)
DNA 1: GTTCGAAATGTTGGAATCCCGGATC
DNA 2: GATCCGGGATTCCAACATTTCGAAC
B8: AaPPO 3-Cu A1 oligo (TTGGCA) (dsDNA)
DNA 1: CATGCACCATTGGCACTGGCATTTA
DNA 2: TAAATGCCAGTGCCAATGGTGCATG

In the first series the target is T1, Aacec B (cecropin B) peptide. In words: EMSA; EMSA: 6% native polyacrylamide gel, LightShift chemiluminescent kit; buffer, salt, pH and temperature not given in the material (cited to earlier work). The conditions noted are these: tags: none stated for EMSA; conjugated to beads for pull-down; label: biotin; blunt.
Consider B1, for which the binding result was “no binding”. The same measure, in the same setting: the entry for B2 is “no binding”; for B3 it is “no binding”; for B4 it is “no binding”.

A further series shares this target. Put plainly: EMSA; 1 ng peptide; EMSA: 6% native polyacrylamide gel, LightShift chemiluminescent kit; buffer, salt, pH and temperature not given in the material (cited to earlier work). Conditions: tags: none stated for EMSA; conjugated to beads for pull-down; label: biotin end label; blunt.
As to B5, the binding result is listed as “binds”. Turning to B6, the binding result is “binds”. Same read-out and setting: then B7, with “binds”; and B8, with “binds”.

The next series concerns T2, Aacec B (cecropin B) peptide (Aedes aegypti). In words: pull-down.
Details: not given
Turning to “AACAAGCCATCGATCATTCCGTGCCAACGATAGAACACAGGATCACGCATTGCCGTTGTCACGTCACCCATTACTCCAAAATCTTCCAAGTACCGATACTCAGGATCGTGAATGTAGGCCAAAAAATCATGTCCAAAGTTATGCAAACTCCCATACAACCTCCTGTTGACGGAAAGCGTGGAAGCTTCAACCAAGTCACCTAAAAT (double strand) [Cu B fragment]”, the binding result is reported as “binds”. Same read-out and setting: the entry for “CTCCGCAAAGGCAAGATCCGGGATTCCAACATTTCGAACCGGAATTTCGACCTCCGCGCCACTCGTGAACCTGCTCTGCAAATCGCCAGCTAACGGACGATAACGATCACTCAAATACTCGTCCGGAATTATGAGCGATGTTTTACCATCGTCCTTTGGCATAAACGATGGCTCCAGAGGGCGTTGCAGAAGCGCTTGGAAAGATTTACTCTCAGCCATCTTTTAACAACAAAACAATGCGTTTCCGTACGATAGCTATCGATTGGAGATTGG (double strand) [5' end-1 fragment]” is “binds”; for “ATAACGAGAAATGATTTGGCTGTGCATATAGTAGAAAAGTTCACCACGGCGATCTTTCTTAGCAATTTCCGGTGGCGCCCCAGCAGGATACACTAAATGCCAGTGCCAATGGTGCATGTTGACTCCGATGTCCTCACGGAAGTATGCCAT (double strand) [Cu A fragment]” it is “binds”; for “GTTAGCTGGCGATTTGCAGAGCAGGTTCACGAGTGGCGCGGAGGTCGAAATTCCGGTTCGAAATGTTGGAATCCCGGATCTTGCCTTTGCGGAG (double strand) [5' end-1-2 fragment]” it is “binds”.

In the case of “GCCTACATTCACGATCCTGAGTATCGGTACTTGGAAGATTTTGGAGTAATGGG (double strand) [Cu B2 fragment]”, the binding result was “binds”. Turning to “ATGGCATACTTCCGTGAGGACATCGGAGTCAACATGCACCATTGGCACTGGCATTTAGT (double strand) [Cu A1 fragment]”, the binding result is given as “binds”.

Take “TGACGTGACAACGGCAATGCGTGATCCTGTGTTCTATCGTTGGCACGGAATGATCGATGGCTTGT (double strand) [Cu B3 fragment]”: the binding entry is listed as “binds”.
